Source: FireProtDB (doi:10.1021/bi201411c)

Conditions: Nostoc ellipsosporum, pH 6, 25 °C, GdnHCl, sodium phosphate 20 mM, transition: 2, reversible: yes(90%), whole UniProt chain shown

B1: Cyanovirin-N wild type, P81180 (protein)
chain: LGKFSQTCYNSAIQGSVLTSTCERTNGGYNTSSIDLNSVIENVDGSLKWQPSNFIETCRNTQLAGSSELAAECKTRAQQFVSTKINLDDHIANIDGTLKYE
Question: Which denaturant m value (CD) does the source give for B1 here?
Answer: 2 kcal/mol/M

Question: What about the “denaturant midpoint (higher = more stable)” value (CD) of the same protein?
Answer: 2.5 M

Question: And the denaturant m value (fluorescence)?
Answer: 1.9 kcal/mol/M

Question: And the “denaturant midpoint (higher = more stable)” value (fluorescence)?
Answer: 2.6 M
